The supplement of paper PMC10065799, “High-throughput profiling of sequence recognition by tyrosine kinases and SH2 domains using bacterial peptide display” (eLife, 2023)

Assays:
c-Abl (mouse) = assay: phosphorylation enrichment, bacterial display (enrichment ratio); higher = better substrate or ligand; peptides without Tyr show the background
Jak2 = Jak2 (UniProt O60674); assay: as above
EPHB2 = EPHB2 (UniProt P29323); assay: as above
FGFR3 = FGFR3 (UniProt P22607); assay: as above
Fer (mouse) = assay: as above
Fyn = Fyn (UniProt P06241); assay: as above
Hck = Hck (UniProt P08631); assay: as above
Hck, sequence (P08631 whole entry, looked up): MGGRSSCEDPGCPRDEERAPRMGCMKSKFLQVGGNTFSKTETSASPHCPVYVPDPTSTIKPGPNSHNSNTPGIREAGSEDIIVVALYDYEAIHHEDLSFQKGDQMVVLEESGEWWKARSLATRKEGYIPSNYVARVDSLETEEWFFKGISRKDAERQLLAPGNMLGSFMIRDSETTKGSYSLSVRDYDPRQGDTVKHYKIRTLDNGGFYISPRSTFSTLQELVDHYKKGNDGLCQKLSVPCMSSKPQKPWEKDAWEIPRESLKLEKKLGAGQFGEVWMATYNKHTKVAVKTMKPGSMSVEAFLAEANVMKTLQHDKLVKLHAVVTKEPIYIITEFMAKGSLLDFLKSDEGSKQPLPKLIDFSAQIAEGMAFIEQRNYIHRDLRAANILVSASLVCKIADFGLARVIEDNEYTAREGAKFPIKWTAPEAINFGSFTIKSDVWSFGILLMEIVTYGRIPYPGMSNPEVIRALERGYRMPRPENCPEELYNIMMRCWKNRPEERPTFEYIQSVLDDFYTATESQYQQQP

c-Src = assay: as above
MERTK = MERTK (UniProt Q12866); assay: as above
MERTK, sequence (Q12866 whole entry, looked up): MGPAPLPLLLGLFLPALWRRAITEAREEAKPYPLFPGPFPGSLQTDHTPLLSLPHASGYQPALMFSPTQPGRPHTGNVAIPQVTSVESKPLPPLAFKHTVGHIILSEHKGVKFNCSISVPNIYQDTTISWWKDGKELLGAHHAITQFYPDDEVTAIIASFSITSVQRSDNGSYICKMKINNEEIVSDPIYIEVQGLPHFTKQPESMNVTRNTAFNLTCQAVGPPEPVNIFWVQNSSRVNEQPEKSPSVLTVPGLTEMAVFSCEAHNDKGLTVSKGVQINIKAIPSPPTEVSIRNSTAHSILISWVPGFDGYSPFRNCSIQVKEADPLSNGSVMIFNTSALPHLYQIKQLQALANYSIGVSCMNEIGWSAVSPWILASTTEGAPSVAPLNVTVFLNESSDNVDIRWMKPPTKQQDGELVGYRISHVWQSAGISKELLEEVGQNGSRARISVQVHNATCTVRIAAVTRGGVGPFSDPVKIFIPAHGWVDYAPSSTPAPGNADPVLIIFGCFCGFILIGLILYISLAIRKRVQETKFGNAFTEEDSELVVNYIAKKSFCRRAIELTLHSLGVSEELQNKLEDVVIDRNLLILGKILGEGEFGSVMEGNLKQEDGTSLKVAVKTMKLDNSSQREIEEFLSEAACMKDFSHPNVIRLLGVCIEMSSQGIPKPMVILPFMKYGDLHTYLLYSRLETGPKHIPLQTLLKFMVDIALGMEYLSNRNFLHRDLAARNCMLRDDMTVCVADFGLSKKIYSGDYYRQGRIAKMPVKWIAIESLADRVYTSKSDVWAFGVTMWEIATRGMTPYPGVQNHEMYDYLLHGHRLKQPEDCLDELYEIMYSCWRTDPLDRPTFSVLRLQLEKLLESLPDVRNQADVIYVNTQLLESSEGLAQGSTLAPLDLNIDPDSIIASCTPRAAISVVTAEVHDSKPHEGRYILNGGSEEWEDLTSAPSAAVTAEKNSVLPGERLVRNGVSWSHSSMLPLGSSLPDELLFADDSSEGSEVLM

FGFR1 = FGFR1 (UniProt P11362); assay: as above
AncSZ = assay: as above
Fes = Fes (UniProt P07332); assay: as above
Fes, sequence (P07332 whole entry, looked up): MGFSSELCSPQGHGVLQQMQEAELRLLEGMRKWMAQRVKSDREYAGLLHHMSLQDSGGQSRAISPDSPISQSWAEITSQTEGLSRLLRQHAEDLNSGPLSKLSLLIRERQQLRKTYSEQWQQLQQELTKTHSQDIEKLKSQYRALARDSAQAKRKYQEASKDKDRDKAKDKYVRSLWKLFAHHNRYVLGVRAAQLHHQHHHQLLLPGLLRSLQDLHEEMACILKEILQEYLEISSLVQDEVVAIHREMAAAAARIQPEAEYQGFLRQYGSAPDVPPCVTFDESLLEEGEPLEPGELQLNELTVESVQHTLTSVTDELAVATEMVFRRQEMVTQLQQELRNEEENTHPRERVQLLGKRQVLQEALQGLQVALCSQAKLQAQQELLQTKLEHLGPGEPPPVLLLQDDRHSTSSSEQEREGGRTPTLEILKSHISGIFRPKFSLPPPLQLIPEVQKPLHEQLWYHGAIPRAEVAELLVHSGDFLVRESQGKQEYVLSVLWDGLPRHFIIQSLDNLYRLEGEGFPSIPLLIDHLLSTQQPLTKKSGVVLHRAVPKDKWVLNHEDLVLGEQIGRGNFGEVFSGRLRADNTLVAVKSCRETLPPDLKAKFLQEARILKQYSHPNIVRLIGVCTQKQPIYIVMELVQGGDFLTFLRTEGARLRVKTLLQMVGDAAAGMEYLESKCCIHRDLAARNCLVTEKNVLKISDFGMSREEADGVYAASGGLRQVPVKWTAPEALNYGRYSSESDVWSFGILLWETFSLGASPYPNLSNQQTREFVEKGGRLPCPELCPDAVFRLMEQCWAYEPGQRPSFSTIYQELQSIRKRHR

EPHB1 = EPHB1 (UniProt P54762); assay: as above
c-Src SH2 = assay: SH2 binding enrichment of the phosphorylated peptide, bacterial display (enrichment ratio); higher = better substrate or ligand; peptides without Tyr show the background
Grb2 SH2 = Grb2 SH2 (UniProt P62993); assay: as above
Grb2 SH2, sequence (P62993 whole entry, looked up): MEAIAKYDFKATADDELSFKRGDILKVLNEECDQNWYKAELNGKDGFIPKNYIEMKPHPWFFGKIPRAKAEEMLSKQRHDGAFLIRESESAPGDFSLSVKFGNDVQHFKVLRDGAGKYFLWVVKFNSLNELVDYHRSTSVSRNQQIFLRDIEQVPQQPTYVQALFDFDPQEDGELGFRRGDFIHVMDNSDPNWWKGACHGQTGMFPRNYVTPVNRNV

SHP2-C SH2 = assay: as above
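Throughout, for SH2 binding enrichment of the phosphorylated peptide, bacterial display: peptide library displayed on the E. coli surface as eCPX fusions, selected cells deep-sequenced, score is each peptide's frequency after selection divided by its frequency in the input.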
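Throughout, for phosphorylation enrichment, bacterial display: 11-residue human phosphosite peptides and single-mutation variants displayed on the E. coli surface, counted by deep sequencing, each peptide's frequency after selection divided by its frequency in the unselected input library; frequency after pTyr selection over input frequency; kinase dosed for 20-30% of maximal phosphorylation in three min.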

EPHB2, sequence (P29323 whole entry, looked up): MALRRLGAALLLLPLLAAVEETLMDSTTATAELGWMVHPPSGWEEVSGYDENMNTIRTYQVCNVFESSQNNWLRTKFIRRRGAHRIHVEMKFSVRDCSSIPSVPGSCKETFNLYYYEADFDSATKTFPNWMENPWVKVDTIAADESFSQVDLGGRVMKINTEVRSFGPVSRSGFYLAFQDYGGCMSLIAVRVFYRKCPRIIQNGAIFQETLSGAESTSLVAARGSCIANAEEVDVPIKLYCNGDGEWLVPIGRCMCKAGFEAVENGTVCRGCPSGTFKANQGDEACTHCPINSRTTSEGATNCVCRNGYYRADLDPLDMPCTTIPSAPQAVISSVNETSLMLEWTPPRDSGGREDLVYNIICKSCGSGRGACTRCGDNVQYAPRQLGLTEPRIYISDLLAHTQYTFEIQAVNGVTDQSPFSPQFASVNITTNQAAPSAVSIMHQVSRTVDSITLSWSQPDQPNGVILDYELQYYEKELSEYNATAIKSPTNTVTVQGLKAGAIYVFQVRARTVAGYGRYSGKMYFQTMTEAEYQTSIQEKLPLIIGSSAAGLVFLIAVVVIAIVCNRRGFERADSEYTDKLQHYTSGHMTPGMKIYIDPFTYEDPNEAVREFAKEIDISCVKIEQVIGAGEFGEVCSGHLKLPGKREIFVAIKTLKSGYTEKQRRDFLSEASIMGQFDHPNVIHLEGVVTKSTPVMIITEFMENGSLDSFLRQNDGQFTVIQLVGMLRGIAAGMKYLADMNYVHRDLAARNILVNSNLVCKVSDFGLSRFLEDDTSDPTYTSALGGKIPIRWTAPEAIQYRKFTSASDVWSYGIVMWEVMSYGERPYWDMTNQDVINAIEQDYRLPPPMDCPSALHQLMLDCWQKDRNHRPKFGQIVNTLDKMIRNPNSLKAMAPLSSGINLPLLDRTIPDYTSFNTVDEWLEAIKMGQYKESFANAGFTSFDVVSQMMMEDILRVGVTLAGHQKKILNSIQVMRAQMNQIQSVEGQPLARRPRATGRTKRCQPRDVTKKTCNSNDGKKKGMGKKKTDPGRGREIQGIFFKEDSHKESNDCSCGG
Jak2, sequence (O60674 whole entry, looked up): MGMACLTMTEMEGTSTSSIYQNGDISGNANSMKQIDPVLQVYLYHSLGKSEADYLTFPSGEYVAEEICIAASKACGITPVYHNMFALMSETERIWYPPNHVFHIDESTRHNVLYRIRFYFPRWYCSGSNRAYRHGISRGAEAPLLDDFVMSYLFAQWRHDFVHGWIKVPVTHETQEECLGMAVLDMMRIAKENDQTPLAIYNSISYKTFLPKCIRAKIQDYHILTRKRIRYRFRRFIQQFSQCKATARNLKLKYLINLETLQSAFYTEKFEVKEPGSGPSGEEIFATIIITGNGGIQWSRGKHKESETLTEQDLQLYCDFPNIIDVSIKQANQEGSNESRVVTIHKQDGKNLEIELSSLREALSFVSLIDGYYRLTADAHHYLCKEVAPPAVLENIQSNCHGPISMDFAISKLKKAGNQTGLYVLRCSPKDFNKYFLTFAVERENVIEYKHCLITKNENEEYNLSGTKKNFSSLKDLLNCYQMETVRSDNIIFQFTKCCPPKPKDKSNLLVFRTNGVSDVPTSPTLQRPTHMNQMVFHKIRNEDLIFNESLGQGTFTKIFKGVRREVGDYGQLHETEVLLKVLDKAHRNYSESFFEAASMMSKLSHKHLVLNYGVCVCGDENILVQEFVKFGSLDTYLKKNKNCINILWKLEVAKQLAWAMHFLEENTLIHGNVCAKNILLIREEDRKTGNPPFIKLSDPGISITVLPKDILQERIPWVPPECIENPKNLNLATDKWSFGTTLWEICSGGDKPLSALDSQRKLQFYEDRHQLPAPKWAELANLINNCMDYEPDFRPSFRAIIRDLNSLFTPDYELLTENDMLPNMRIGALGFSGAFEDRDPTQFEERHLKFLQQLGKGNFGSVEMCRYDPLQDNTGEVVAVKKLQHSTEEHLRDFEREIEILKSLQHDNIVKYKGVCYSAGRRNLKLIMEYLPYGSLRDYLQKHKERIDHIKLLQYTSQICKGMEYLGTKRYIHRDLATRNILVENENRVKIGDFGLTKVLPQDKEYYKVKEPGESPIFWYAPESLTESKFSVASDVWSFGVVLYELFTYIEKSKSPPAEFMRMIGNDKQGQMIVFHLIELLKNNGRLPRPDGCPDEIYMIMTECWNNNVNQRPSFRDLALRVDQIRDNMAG

Sequence | phosphorylation enrichment (c-Abl (mouse)) | phosphorylation enrichment (Jak2) | phosphorylation enrichment (EPHB2) | phosphorylation enrichment (FGFR3) | phosphorylation enrichment (Fer (mouse)) | phosphorylation enrichment (Fyn) | phosphorylation enrichment (Hck) | phosphorylation enrichment (c-Src) | phosphorylation enrichment (MERTK) | phosphorylation enrichment (FGFR1) | phosphorylation enrichment (AncSZ) | phosphorylation enrichment (Fes) | phosphorylation enrichment (EPHB1) | SH2 binding enrichment (c-Src SH2) | SH2 binding enrichment (Grb2 SH2) | SH2 binding enrichment (SHP2-C SH2)
TTKGSYSLSVR [HCK_Y180] | 0.624 | 1.04 | 0.43 | 0.582 | 0.388 | 0.461 | 0.433 | 0.568 | 0.455 | 0.558 | 0.674 | 0.727 | 0.448 | 0.51 | 0.876 | 0.664
TFEYRYLEDQD [CNOT3_Y746_R750Q] | 0.673 | 0.916 | 0.553 | 0.823 | 0.518 | 0.438 | 0.637 | 0.54 | 0.44 | 0.77 | 1.22 | 1.15 | 0.566 | 0.66 | 0.772 | 0.478
ESLRRYLENGK [HLA-B_Y195_W191S] | 0.548 | 0.519 | 0.362 | 0.45 | 0.454 | 0.384 | 0.461 | 0.34 | 0.392 | 0.397 | 0.629 | 0.629 | 0.431 | 0.436 | 0.813 | 0.473
HKANEYYPVVI [ADAMTS18_Y764_L769I] | 0.61 | 2.19 | 0.599 | 13.1 | 1.26 | 0.676 | 0.723 | 0.427 | 0.558 | 17.4 | 2.1 | 0.746 | 1.01 | 0.587 | 0.665 | 1.06
TVSTRYTQPQP [SARG_Y259] | 0.576 | 0.605 | 0.427 | 0.39 | 0.471 | 0.442 | 0.37 | 0.364 | 0.394 | 0.446 | 0.616 | 0.561 | 0.386 | 0.81 | 0.744 | 1.03
SPPILYSFFLN [FCRL6_Y239_D244N_YF] | 2.75 | 1.05 | 2.36 | 1.38 | 5.01 | 2.46 | 3.03 | 3.41 | 10.5 | 1.41 | 1.08 | 1.17 | 3.03 | 0.763 | 1.29 | 1.28
MANYMYKAGPS [MAML2_Y515] | 1.04 | 0.497 | 0.963 | 0.496 | 0.358 | 0.508 | 0.51 | 0.556 | 0.584 | 0.465 | 0.636 | 0.616 | 1.32 | 0.485 | 0.887 | 0.787
EEGRVYVYHLS [ITGAE_Y549_R552H] | 0.713 | 0.998 | 0.491 | 0.75 | 0.756 | 0.64 | 0.519 | 0.828 | 0.449 | 0.58 | 1.13 | 1.22 | 0.576 | 0.438 | 0.701 | 0.897
SPLTDYSPQLQ [OTC_Y345_L341P] | 0.661 | 0.691 | 0.517 | 0.489 | 0.421 | 0.403 | 0.417 | 0.496 | 0.479 | 0.522 | 0.749 | 0.67 | 0.414 | 0.484 | 0.878 | 0.712
RELSWYRGQRP [HESX1_Y106_R109Q] | 0.38 | 0.956 | 0.661 | 0.541 | 0.376 | 0.505 | 0.552 | 0.401 | 0.488 | 0.506 | 0.962 | 0.901 | 0.581 | 0.597 | 1.78 | 0.785
IYETDYYRKGG [INSR_Y1189] | 0.626 | 0.942 | 0.673 | 0.771 | 1.54 | 1.14 | 1.28 | 1.16 | 3.92 | 0.479 | 1.05 | 0.885 | 0.645 | 0.59 | 0.863 | 0.621
DYYDLYGGKKF [PTPN11_Y66_E69K] | 0.698 | 0.971 | 1.22 | 9.68 | 0.421 | 3.27 | 5.9 | 3.05 | 1.21 | 11.5 | 1.31 | 0.825 | 1.89 | 0.388 | 0.74 | 0.581
EFNLMYDGAKE [IRF6_Y97_T100A] | 0.857 | 1.13 | 0.576 | 0.845 | 0.593 | 0.594 | 0.702 | 0.584 | 0.517 | 0.652 | 1.35 | 1.29 | 0.593 | 0.626 | 0.965 | 0.684
KPVDTYFDSTR [DYNC2H1_Y2230_M2227V_YF] | 0.611 | 0.723 | 0.556 | 0.73 | 0.472 | 0.567 | 0.565 | 0.43 | 0.54 | 0.624 | 0.925 | 0.997 | 0.668 | 0.422 | 0.83 | 0.693
SLMNQYVNKKF [RAB7A_Y28] | 0.447 | 0.44 | 0.373 | 0.396 | 0.398 | 0.383 | 0.427 | 0.342 | 0.315 | 0.381 | 0.474 | 0.579 | 0.291 | 0.442 | 0.877 | 0.697
GIVEDYRPPLF [ACVRL1_Y421_F425L_YF] | 0.511 | 0.626 | 0.418 | 0.722 | 0.406 | 0.458 | 0.343 | 0.373 | 0.377 | 0.434 | 0.841 | 0.904 | 0.442 | 0.349 | 0.801 | 0.671
FENGEYIVRQG [PRKG1_Y247_I249V_YF] | 0.646 | 0.685 | 0.641 | 0.922 | 0.523 | 0.468 | 0.551 | 0.43 | 0.39 | 0.437 | 0.888 | 0.962 | 0.612 | 0.637 | 1.06 | 0.552

Sequence | phosphorylation enrichment (c-Abl (mouse)) | phosphorylation enrichment (Jak2) | phosphorylation enrichment (EPHB2) | phosphorylation enrichment (FGFR3) | phosphorylation enrichment (Fer (mouse)) | phosphorylation enrichment (Fyn) | phosphorylation enrichment (Hck) | phosphorylation enrichment (c-Src) | phosphorylation enrichment (MERTK) | phosphorylation enrichment (FGFR1) | phosphorylation enrichment (AncSZ) | phosphorylation enrichment (Fes) | phosphorylation enrichment (EPHB1) | SH2 binding enrichment (c-Src SH2) | SH2 binding enrichment (Grb2 SH2) | SH2 binding enrichment (SHP2-C SH2)
ESFRLYPPVPQ [CYP4B1_Y377] | 0.553 | 0.536 | 0.477 | 0.491 | 0.378 | 0.457 | 0.415 | 0.391 | 0.404 | 0.342 | 0.62 | 0.704 | 0.416 | 0.464 | 0.829 | 0.713
QPSALYEDRFL [ASS1_Y83_S79P_YF] | 0.881 | 0.968 | 2.01 | 1.12 | 10.6 | 1.77 | 6.97 | 1.41 | 1.11 | 0.816 | 1.4 | 1.4 | 3.04 | 0.633 | 0.783 | 0.684
SLDLSYFPTSS [EMD_Y181_YF] | 0.632 | 2.93 | 0.513 | 0.635 | 0.353 | 0.496 | 0.432 | 0.502 | 0.56 | 0.59 | 0.879 | 0.793 | 0.426 | 0.414 | 0.8 | 1.1
YDDGKYVYVVT [RPS6KA3_Y488] | 0.768 | 1.34 | 0.669 | 1.38 | 0.811 | 1.43 | 1.04 | 1.3 | 0.941 | 1.63 | 1.25 | 1.27 | 0.724 | 0.595 | 0.907 | 0.531
PDSVDYRKKGY [CTSK_Y121] | 0.976 | 1.01 | 1.67 | 0.661 | 0.657 | 0.749 | 0.78 | 0.905 | 0.823 | 1.06 | 1.07 | 1.08 | 0.599 | 0.686 | 1.14 | 0.708
VTNHIYTWVDP [DFNB31_Y234] | 0.711 | 0.87 | 1.63 | 3.33 | 10.2 | 4.26 | 3.06 | 3.2 | 7.06 | 3.77 | 2.57 | 2 | 2.73 | 1.05 | 1.14 | 0.956
PVFEVYPLLNC [GATA1_Y78_Q76E] | 1.03 | 1.48 | 0.756 | 1.9 | 0.533 | 0.418 | 0.597 | 0.758 | 0.559 | 2.54 | 1.64 | 1.86 | 0.742 | 0.551 | 0.945 | 0.73
ATDLAYFLVCK [ASL_Y375_R379C_YF] | 1.1 | 2.42 | 0.617 | 1.26 | 0.698 | 0.564 | 0.674 | 0.655 | 0.517 | 1.16 | 1.6 | 1.61 | 0.789 | 0.425 | 0.776 | 0.748
CTTIHYNFKCN [TP53_Y234_M237K_YF] | 0.51 | 0.545 | 0.392 | 0.494 | 0.386 | 0.405 | 0.476 | 0.411 | 0.425 | 0.472 | 0.795 | 0.75 | 0.381 | 1.23 | 1.23 | 1.5
LGNFNYEQRGA [API5_Y497] | 0.715 | 0.919 | 0.456 | 0.507 | 0.408 | 0.435 | 0.485 | 0.43 | 0.392 | 0.569 | 0.761 | 0.986 | 0.474 | 0.462 | 0.87 | 0.487
GVRFIYTIDGS [DCX_Y105_YF] | 0.924 | 1.45 | 0.737 | 0.843 | 0.669 | 1.04 | 0.674 | 1.01 | 0.48 | 0.546 | 1.41 | 1.59 | 0.628 | 0.507 | 0.915 | 0.933
FGAHNHHPLPV [OAT_Y55_Y55H_YF] | 0.579 | 0.583 | 0.54 | 0.694 | 0.505 | 0.369 | 0.457 | 0.477 | 0.496 | 0.386 | 0.58 | 0.636 | 0.393 | 0.818 | 1.03 | 1.14
NFRPGYNNFFN [USH2A_Y467_YF] | 0.574 | 0.712 | 0.483 | 0.549 | 0.389 | 0.522 | 0.466 | 0.64 | 0.433 | 0.519 | 0.773 | 0.772 | 0.354 | 0.497 | 0.9 | 0.686
MSRDVYSIDFF [NTRK2_Y702_T704I_YF] | 0.652 | 0.889 | 1.17 | 1.2 | 1.16 | 8.38 | 4.17 | 6.79 | 7.45 | 1.61 | 1.02 | 1.05 | 1.23 | 0.656 | 1.03 | 0.809
FADIAYSFRHG [PAH_Y166_N167S_YF] | 0.463 | 0.422 | 0.383 | 0.491 | 0.393 | 0.443 | 0.44 | 0.64 | 0.33 | 0.313 | 0.62 | 0.674 | 0.344 | 0.673 | 0.749 | 1.15
VHNLNYFKKTT [FGFR3_Y647_D646N_YF] | 0.442 | 0.467 | 0.314 | 0.369 | 0.346 | 0.302 | 0.347 | 0.425 | 0.311 | 0.355 | 0.402 | 0.607 | 0.36 | 0.377 | 0.987 | 0.678
